From patent US9688764B2, “Methods of treating breast cancer by administering anti-human prolactin receptor (PRLR) antibodies” (REGENERON PHARMACEUTICALS, INC., priority 2013, dated 2017)

T1: PRLR-expressing cells (T47D) (Homo sapiens, UniProt P16471)
T1 construct: a native PRLR expressing cell line (T47D); endogenous in cells; host or cells: T47D
T1 sequence (P16471 25-622): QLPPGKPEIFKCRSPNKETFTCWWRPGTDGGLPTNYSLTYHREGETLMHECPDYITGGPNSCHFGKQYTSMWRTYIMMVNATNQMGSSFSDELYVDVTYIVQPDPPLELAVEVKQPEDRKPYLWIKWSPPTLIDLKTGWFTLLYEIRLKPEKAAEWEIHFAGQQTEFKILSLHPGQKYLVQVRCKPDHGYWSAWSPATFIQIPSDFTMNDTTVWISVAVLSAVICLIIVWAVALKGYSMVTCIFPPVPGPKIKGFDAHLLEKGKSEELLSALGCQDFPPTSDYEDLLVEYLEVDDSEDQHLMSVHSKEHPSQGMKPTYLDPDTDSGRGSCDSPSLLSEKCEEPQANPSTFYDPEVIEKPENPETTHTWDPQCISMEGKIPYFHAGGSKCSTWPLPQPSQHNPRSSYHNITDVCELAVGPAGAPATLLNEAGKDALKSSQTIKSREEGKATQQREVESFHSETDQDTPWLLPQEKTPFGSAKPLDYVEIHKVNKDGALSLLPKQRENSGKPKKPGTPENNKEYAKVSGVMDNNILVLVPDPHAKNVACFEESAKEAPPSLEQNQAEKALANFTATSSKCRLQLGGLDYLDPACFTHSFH


How the values were obtained:
HEK293/mfPRLR = experiment: FACS cell surface binding; design: species or system macaca fascicularis
Sequence of HEK293/mfPRLR (as listed by the source): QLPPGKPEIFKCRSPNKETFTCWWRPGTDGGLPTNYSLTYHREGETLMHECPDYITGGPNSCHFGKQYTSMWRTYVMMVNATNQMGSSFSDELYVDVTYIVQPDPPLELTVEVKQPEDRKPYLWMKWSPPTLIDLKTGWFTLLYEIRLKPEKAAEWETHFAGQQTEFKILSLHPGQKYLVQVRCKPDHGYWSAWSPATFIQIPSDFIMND
Procedure: The ability of anti-PRLR antibodies to selectively bind PRLR expressing cell lines was next determined. Human, monkey macaca fascicularis, and mouse PRLR constructs with an HA tag were stably introduced into HEK293 cells via Lipofectamine 2000-mediated transfection methodology. Transfectants (HEK293/hPRLR, HEK293/mfPRLR and HEK293/mPRLR) were selected for at least 2 weeks in complete growth media plus G418.
Cell surface expression of PRLR on 293/hPRLR cells was assessed via FACS analysis. Briefly, 1×10^5 cells were incubated with 10 μg/ml of Control antibody I, or an isotype control for 30 min on ice in antibody dilution buffer. Following two washes with antibody dilution buffer, cells were incubated with 10 μg/ml of PE conjugated anti-human secondary antibodies for 30 min on ice. Following two additional washes, samples were run on a Hypercyt® cytometer and analyzed in FORECYT™ (IntelliCyt, Albuquerque, N. Mex.). The mean fluorescence intensities (MFI) were expressed as fold change above isotype control levels (background). FACS binding confirmed that Control I selectively bound to 293/hPRLR expressing cells with MFIs that were 30 fold above background (isotype ctrl) levels and less than 2 fold binding on parental cells.
Next, the anti-PRLR antibodies of the present invention were tested via FACS for selective binding to the engineered overexpressing PRLR HEK293 cell lines, as well as to non-expressing HEK293 cells and a native PRLR expressing cell line (T47D).

[1] = molecular target: T1, PRLR-expressing cells (T47D); experiment: Antibody binding and internalization by PRLR-expressing cells (imaging); type: cell-based; conditions: [mAb] (0.67 nM); for % Internalization relative to Control I: alexa488 intensity in intracellular vesicles, 1 h at 37° C.; for % Total Binding relative to Control I: whole cell alexa488 intensity at 37° C.
Procedure: In this Example, the internalization of anti-PRLR antibodies by PRLR-expressing cells (T47D) was assessed. Briefly, 20,000 T47D cells were seeded in collagen coated 96 well plates. […] Cells were then incubated with alexa488 conjugated anti-hFc Fab secondary antibodies for 30 minutes on ice followed by two additional PBS washes. Antibodies were allowed to internalize for 1 h at 37° C. in internalization buffer (PBS+2% FBS) or remained at 4° C. Cells were fixed in 4% formaldehyde, nuclei were stained with DRAQ5 (Cell signaling), and images were acquired on the ImageXpress micro XL (Molecular Devices). Whole cell alexa488 intensity at 37° C. (Binding) and the alexa488 intensity in the intracellular vesicles at 37° C. (Internalization) were determined via Columbus image analysis software (PerkinElmer).

[2] = tested on: HEK293/hPRLR/STAT5-Luc cells (human PRLR); experiment: STAT5-Luc luciferase reporter assay, blocking of PRL-mediated receptor activation; type: cell-based; conditions: for IC50: 5 nM constant PRL, 6 hr at 37° C.; for Percent Blocking at 100 nM Antibody: 5 nM PRL
Excerpt: The ability of anti-PRLR antibodies to block prolactin (PRL)-mediated receptor activation was examined in a luciferase-based reporter assay. The endocrine hormone PRL binds to the extracellular domain of its cognate receptor PRLR, triggering rapid homodimerization and activating several downstream signaling cascades.
In this example, an engineered cell line was used to determine the ability of anti-PRLR antibodies to block ligand activation of the PRLR receptor. Briefly, HEK293/hPRLR/STAT5-Luc cell lines with stable incorporation of a human PRLR expression cassette and the STAT5-dependent luciferase reporter were generated via sequential rounds of Lipofectamine® 2000-mediated transfection (LifeTechnologies, Carlsbad, Calif.). Cells were selected for at least two weeks in the presence of 500 μg/mL G418 (hPRLR) and 100 μg/mL hygromycin B (STAT5-Luc). The STAT5-Luc assay utilized 2×10^5 HEK293/hPRLR/STAT5-Luc cells seeded in complete growth medium on PDL-coated 96 well plates grown overnight at 37° C., 5% CO2. To generate antibody inhibition curves, cells were incubated (6 hr at 37° C.) with serially diluted anti-human PRLR antibodies (100 nM to 24 pM) in the presence of 5 nM constant PRL before recording signal. PRL dose response curves were generated by the addition of serially diluted PRL (100 nM to 24 pM) to cells and recording signal after a 6 hr (37° C.) incubation in the absence of antibodies. The ability of the antibodies to activate PRLR in the absence of ligand was also assessed.
Luciferase activity was measured with ONE-GLO™ reagent (Promega, Madison, Wis.). Relative light units (RLUs) were measured on a Victor luminometer (Perkin Elmer, Shelton, Conn.). EC50/IC50 values were determined from a four-parameter logistic equation over an 8-point response curve using GraphPad Prism. Percent blocking and percent activation are reported for the highest antibody dose.

| Molecule | FACS Cell Binding (Fold Above Background) (HEK293/mfPRLR) | % Internalization relative to Control I [1] [%] | % Total Binding relative to Control I [1] [%] | IC50 [2] [nM] | Percent Blocking at 100 nM Antibody [2] [%] |
| --- | --- | --- | --- | --- | --- |
| H1H6960N: human IgG1 Fc form of H2M6960N; anti-PRLR; HCVR/LCVR SEQ ID NOs 322/330 (antibody, V domains shown, human IgG1 Fc) VH: EVQLVESGGGLVKPGGSLRLSCAASGITFSSYSMNWVRQAPGKGLEWVSSISTRSSLIHYADSVKGRFTISRDNAKNSLYLQMNSLRDEDTAVYYCARWDAAAAFDYWGQGTLVIVSS VL: DIQLTQSPSFLSASVGDRVTITCWASQGISSYLAWYQQKPGKAPKLLIYVASTLQSGVPSRFSGSGSGTEFTLTISSLQPEDFATYFCQQLNSYPLTFGGGTKVEIK | 23 | 120.0 | 89.7 | 1.58 | 100 |
| H1H6975N: human IgG1 Fc form of H2M6975N; anti-PRLR; HCVR/LCVR SEQ ID NOs 370/378 (antibody, V domains shown, human IgG1 Fc) VH: EVHLVESGGGLVQPGGSLRLSCAASGFTFSSYEMNWVRQTPGKGLEWISHISSRSVIIYYADSVKGRFTISRDNAKNSLFLQMNSLRAEDTAVYFCAGITIFGIPEYWGQGTLVTVSS VL: EIVLTQSPATLSLSPGERATLSCRASQSVSSYFAWYQQKPGQAPRLLIYDASSRATGIPTRFSGSGSGTDFTLTISSLEPEDFAVYYCQQRSSWPITFGQGTRLEIK | 29 | 214.2 | 225.9 | 0.241 | 100 |
| H1H6762P: anti-PRLR antibody, human IgG1 Fc; HCVR/LCVR SEQ ID NOs 2/10 (antibody, V domains shown, human IgG1 Fc) VH: QVQLVESGGGVVQPGRSLRLSCAASGFTFSHYGMVWVRQPPGKGLEWVALISFDGTTKYYADSVKGRFTISRDNSKNTLYLQMNSLRAEDTAVYFCVGAIAAAAFDLWGRGTLVTVSS VL: EIVMTQSPATLSVSPGERATLSCRASQSVSSDLAWYQQKPGQAPRLLIYSASARATGIPARFTGSGSGTDFTLTISSLQSEDFAVYYCQQYNNWPMYTFGQGTKLEIK | 26 | 186.3 | 176.7 | 0.0219 | 100 |
| H1H6959N2: human IgG1 Fc form of H2M6959N2; anti-PRLR; HCVR/LCVR SEQ ID NOs 306/314 (antibody, V domains shown, human IgG1 Fc) VH: EVQLVESGGGLVQPGRSLRLSCAASGFTFDDYAMHWVRQAPGKGLEWVSGISWHSGIIGYADSVKGRFTISRDNAKNSLYLQMNSLRTEDAALYYCAKIGSYFYFDSWGQGTLVTVSS VL: EIVLTQSPGTLSLSPGERATLSCRASQSVSSNYLAWYQQKPGQAPRLLIYGASSRATGIPDRFSGSGSGTDFTLTISRLEPEDFAVYYCQQFGSSGYTFGQGTNLEIK | 11 | 15.3 | 2.0 |  | 52 |
| H1H6976N: human IgG1 Fc form of H2M6976N; anti-PRLR; HCVR/LCVR SEQ ID NOs 386/394 (antibody, V domains shown, human IgG1 Fc) VH: EVQLLESGGGFVQPGGSLRLSCAASGFTFSSYAMSWVRQAPGKGLEWVSIISSNGRYTYYADSVKGRFTISRDNSKNTLYLQMNSLRAEDTAVYYCATVTGDWFDPWGQGTLVTVSS VL: DIQLTQSPSFLSASVGDRVTITCWASQDIDISLAWYQQKPGKAPKLLIYAASTLQSGVPSKFSGSGSGTDFTLTISSLQPEDFSTYYCQQLNSYPITFGQGTRLDIK | 29 | 169.5 | 180.4 |  | 23 |
| H1H6958N2: human IgG1 Fc form of H2M6958N2; anti-PRLR, receptor blocking; HCVR/LCVR SEQ ID NOs 290/298 (antibody, V domains shown, human IgG1 Fc) VH: QVQLVESGGGVVQPGRSLRLSCGASGFTFRNYGMQWVRQGPGKGLEWVTLISFDGNDKYYADSVKGRFTISRDNSKNTLFLQMNSLRTEDTAVYYCARGGDFDYWGQGTLVTVSS VL: DIQMTQSPSSLSASVGDRVTITCRASQDIRKDLGWYQQKPGKAPKRLIYAASSLHSGVPSRFSGSGSGTEFTLTISSLQPEDFATYYCLQHNSYPMYTFGQGTKLEIK | 30 | 169.0 | 161.5 | 0.198 | 100 |
| H1H6966N: human IgG1 Fc form of H2M6966N; anti-PRLR; HCVR/LCVR SEQ ID NOs 338/346 (antibody, V domains shown, human IgG1 Fc) VH: QVQLVQSGAEVQKPGASVKVSCKVSGYTLTALSIHWVRQAPGKGLEWMGNFDPGDGETIHAQKFQGRVTMTGDTSTDTAYMELSSLRSEDTAVYYCVGVTFDYWGQGTLVTVSS VL: EIVMTQSPATLSVSPGERATLSCRASQSVASNLAWYQQKPGQAPRLLLYGASTRATGIPARFSGSGSGTEFTLTISSLQSEDFALYYCQHYNNWPLTFGGGTKVEIK | 18 | 137.2 | 111.3 |  | 54 |
| H1H6967N: human IgG1 Fc form of H2M6967N; anti-PRLR; HCVR/LCVR SEQ ID NOs 354/362 (antibody, V domains shown, human IgG1 Fc) VH: EVQLVESGGDLVHPGRSLRLSCAASGFPFDEYAMHWVRQVPGKGLEWVSGISWSNNNIGYADSVKGRFTISRDNAKNSLYLQMNSLRPEDTAFYYCAKSGIFDSWGQGTLVTVSS VL: EIVMTQSPATLSVSPGERATLSCRASQSVSRDLAWYQQKPGQAPRLLIHGASTRATGIPARFSGSGSGAEFTLIISSLQSEDFAVYYCQQYNNWPLTFGGGTKVEIK | 28 | 168.6 | 158.6 | 0.768 | 100 |
